Test results as given in patent US20100135951.

Target: purified cIAP1, Q13490
Sequence (Q13490 whole entry): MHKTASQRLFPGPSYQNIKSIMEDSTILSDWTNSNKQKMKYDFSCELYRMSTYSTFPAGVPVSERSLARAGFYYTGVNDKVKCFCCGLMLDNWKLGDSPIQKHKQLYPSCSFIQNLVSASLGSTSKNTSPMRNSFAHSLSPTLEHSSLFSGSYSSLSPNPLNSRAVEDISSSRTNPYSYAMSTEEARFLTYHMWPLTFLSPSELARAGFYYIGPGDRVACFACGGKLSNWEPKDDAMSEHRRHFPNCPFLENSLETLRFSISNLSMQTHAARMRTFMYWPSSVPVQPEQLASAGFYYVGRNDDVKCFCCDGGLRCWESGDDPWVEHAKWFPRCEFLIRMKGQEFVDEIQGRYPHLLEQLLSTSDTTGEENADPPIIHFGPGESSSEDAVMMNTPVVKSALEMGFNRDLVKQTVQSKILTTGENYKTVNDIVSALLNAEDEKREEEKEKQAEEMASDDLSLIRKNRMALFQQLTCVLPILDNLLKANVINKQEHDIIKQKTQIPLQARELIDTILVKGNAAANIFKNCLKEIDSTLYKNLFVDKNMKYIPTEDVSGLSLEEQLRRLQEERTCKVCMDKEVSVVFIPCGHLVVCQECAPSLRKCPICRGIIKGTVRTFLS

B1: recombinant active human caspase-8 (protein)
chain: SESQTLDKVYQMKSKPRGYCLIINNHNFAKAREKVPKLHSIRDRNGTHLDAGALTTTFEELHFEIKPHDDCTVEQIYEILKIYQLMDHSNMDCFICCILSHGDKGIIYGTDGQEAPIYELTSQFTGLKCPSLAGKPKVFFIQACQGDNYQKGIPVETDSEEQPYLEMDLSSPQTRYIPDEADFLLGMATVNNCVSYRNPAEGTWYIQSLCQSLRERCPRGDDILTILTEVNYEVSNKDDKKNMGKQMPQPTFTLRKKLVFPSD
  caspase-8 protease activity (fluorogenic substrate Ac-IETD-AMC): purified cIAP1 also suppressed caspase-8 protease activity completely
